Each block holds one substance with its values, some of them ahead of it.
How the values were obtained:
[1] = biological target: 25kD protein (immunoreactive P29 form of Drosophila) (Drosophila melanogaster); assay: not stated; dimerisation of the 25kD protein under in vitro conditions
[2] = biological target: Aedes aegypti sterol carrier protein-2-like-2 (SCP-2-L2) (Aedes aegypti); assay: crystal structure; ligand-bound X-ray structure at 1.7-angstrom resolution, with bound fatty acid
[3] = biological target: OBP48 expressed in lepidopteran cells (Anopheles gambiae); assay: co-IP + cross-linking; OBPs expressed in lepidopteran cells, examined for in vitro interactions in the absence of exogenously added ligands; chemical cross-linking

stoichiometry N [1]: 2
Substance: 25kD protein (immunoreactive P29 form of Drosophila) (natural protein)

stoichiometry N [2]: 2
Substance: Aedes aegypti sterol carrier protein-2-like-2 (SCP-2-L2) (natural protein)

stoichiometry N [3]: 2
Substance: OBP48 expressed in lepidopteran cells (natural protein)
